Biological target: PP1c^1-293 (potato Protein Phosphatase 1-c isoform-3) (potato)
Test: ITC

B1: Pi04314 WY-only (domain or fragment)
chain: DLLGLFAKSKLKKMMKSESFKLKRFGEWDDFTVGYIREKLKNKYPDLLLNYLNVYKKAGNEIVR
- Kd: 12.2 µM
